Measurements from publication PMC11250029.

Target: lavanducyanin halogenase (LvcH) (Streptomyces sp. CNZ-289)
Assay: SEC

Substance: lavanducyanin halogenase (LvcH) (enzyme)
- stoichiometry N: 2
